Test results from patent publication US20210395394A1.

Target: Pan-species-specific antigen Plasmodium Lactate DeHydrogenase (Pan-PLDH) protein
Experiment: indirect ELISA at four coating concentrations, KD calculated from half-maximal OD

Row | Kd | Binder
1 | 0.743 nM | Mutation 1-41 (antibody, mouse IgG2b, kappa, V domains shown) VH: QVQLQQPGAELVRPGASVKLSCKASGYSFTNYWMNWVKQRPGQGLEWIGMIHPSESETRVNQKFKDKATLTVDKSSSTAYMQLSSLTAEDSAVYYCAKSGEFYTTYFDYWGQGTTLTVSS VL: DIQLTQSPASLSASVGETVTITCRGTGNIHNYLAWYQQKQGKSPQLLVYNARTLADGVPSRFSGSGSGTQYSLKINSLQPEDFGSYYCQSFWSTYTFGGGTKLEIKR
2 | 0.759 nM | WT 1-1 (antibody, mouse IgG2b, kappa, V domains shown) VH: QVQLQQPGAELVRPGASVKLSCKASGTSFTNYFMNWVKQRPGQGLEWIGMINPSDSETRINQKFKDKATLTVDKSSSTAYMQLSSLTAEDSAVYYCARSGDFYTSYWDYWGQGTTLTVSS VL: DIQLTQSPASLSASVGETVTITCRGTGNIHNYIAWYQQKQGKSPQLLVYNAKTLADGVPSRFSGSGSGTQYSLKINSLQPEDFGSYYCQTFWSSYTFGGGTKLEIKR
3 | 0.633 nM | Mutation 1-54 (antibody, mouse IgG2b, kappa, V domains shown) VH: QVQLQQPGAELVRPGASVKLSCKASGTSFTNYWMNWVKQRPGQGLEWIGMIHPSDSETRINQKFKDKATLTVDKSSSTAYMQLSSLTAEDSAVYYCARSGDFYTYYFDYWGQGTTLTVSS VL: DIQLTQSPASLSASVGETVTITCRGTGNIHNYLAWYQQKQGKSPQLLVYNAKTVADGVPSRFSGSGSGTQYSLKINSLQPEDFGSYYCQSFWSTYTFGGGTKLEIKR
4 | 0.415 nM | Mutation 1-45 (antibody, mouse IgG2b, kappa, V domains shown) VH: QVQLQQPGAELVRPGASVKLSCKASGYSFTNYWMNWVKQRPGQGLEWIGMIHPSESETRINQKFKDKATLTVDKSSSTAYMQLSSLTAEDSAVYYCARSGEFYTYYFDYWGQGTTLTVSS VL: DIQLTQSPASLSASVGETVTITCRGSGNVHNYLAWYQQKQGKSPQLLVYNARTIADGVPSRFSGSGSGTQYSLKINSLQPEDFGSYYCQSFWSTYTFGGGTKLEIKR
5 | 0.0879 nM | Mutation 1-50 (antibody, mouse IgG2b, kappa, V domains shown) VH: QVQLQQPGAELVRPGASVKLSCKASGTSFTNYWMNWVKQRPGQGLEWIGMIHPSDSETRVNQKFKDKATLTVDKSSSTAYMQLSSLTAEDSAVYYCAKSGEFYTSYFDYWGQGTTLTVSS VL: DIQLTQSPASLSASVGETVTITCRGSGNVHNYLAWYQQKQGKSPQLLVYNAKTIADGVPSRFSGSGSGTQYSLKINSLQPEDFGSYYCQSFWSTYTFGGGTKLEIKR
6 | 0.659 nM | Mutation 1-52 (antibody, mouse IgG2b, kappa, V domains shown) VH: QVQLQQPGAELVRPGASVKLSCKASGYSFTNYWMNWVKQRPGQGLEWIGMIHPSESETRLNQKFKDKATLTVDKSSSTAYMQLSSLTAEDSAVYYCAKSGEFYTTYFDYWGQGTTLTVSS VL: DIQLTQSPASLSASVGETVTITCRGSGNIHNYLAWYQQKQGKSPQLLVYNARTVADGVPSRFSGSGSGTQYSLKINSLQPEDFGSYYCQSFWSTYTFGGGTKLEIKR
7 | 0.318 nM | Mutation 1-44 (antibody, mouse IgG2b, kappa, V domains shown) VH: QVQLQQPGAELVRPGASVKLSCKASGSSFTNYWMNWVKQRPGQGLEWIGMIHPSDSETRVNQKFKDKATLTVDKSSSTAYMQLSSLTAEDSAVYYCARSGEFYTSYFDYWGQGTTLTVSS VL: DIQLTQSPASLSASVGETVTITCRGTGNVHNYLAWYQQKQGKSPQLLVYNAKTLADGVPSRFSGSGSGTQYSLKINSLQPEDFGSYYCQYFWSTYTFGGGTKLEIKR
8 | 0.454 nM | Mutation 1-47 (antibody, mouse IgG2b, kappa, V domains shown) VH: QVQLQQPGAELVRPGASVKLSCKASGTSFTNYWMNWVKQRPGQGLEWIGMIHPSESETRVNQKFKDKATLTVDKSSSTAYMQLSSLTAEDSAVYYCAKSGDFYTSYFDYWGQGTTLTVSS VL: DIQLTQSPASLSASVGETVTITCRGSGNLHNYLAWYQQKQGKSPQLLVYNARTLADGVPSRFSGSGSGTQYSLKINSLQPEDFGSYYCQTFWSTYTFGGGTKLEIKR
9 | 0.526 nM | Mutation 1-51 (antibody, mouse IgG2b, kappa, V domains shown) VH: QVQLQQPGAELVRPGASVKLSCKASGSSFTNYWMNWVKQRPGQGLEWIGMIHPSESETRINQKFKDKATLTVDKSSSTAYMQLSSLTAEDSAVYYCAKSGEFYTYYFDYWGQGTTLTVSS VL: DIQLTQSPASLSASVGETVTITCRGTGNVHNYLAWYQQKQGKSPQLLVYNARTLADGVPSRFSGSGSGTQYSLKINSLQPEDFGSYYCQTFWSTYTFGGGTKLEIKR
10 | 0.53 nM | Mutation 1-43 (antibody, mouse IgG2b, kappa, V domains shown) VH: QVQLQQPGAELVRPGASVKLSCKASGTSFTNYWMNWVKQRPGQGLEWIGMIHPSDSETRLNQKFKDKATLTVDKSSSTAYMQLSSLTAEDSAVYYCARSGDFYTYYFDYWGQGTTLTVSS VL: DIQLTQSPASLSASVGETVTITCRGSGNIHNYLAWYQQKQGKSPQLLVYNAKTVADGVPSRFSGSGSGTQYSLKINSLQPEDFGSYYCQSFWSTYTFGGGTKLEIKR
11 | 0.717 nM | Mutation 1-53 (antibody, mouse IgG2b, kappa, V domains shown) VH: QVQLQQPGAELVRPGASVKLSCKASGSSFTNYWMNWVKQRPGQGLEWIGMIHPSESETRVNQKFKDKATLTVDKSSSTAYMQLSSLTAEDSAVYYCARSGDFYTSYFDYWGQGTTLTVSS VL: DIQLTQSPASLSASVGETVTITCRGTGNIHNYLAWYQQKQGKSPQLLVYNARTIADGVPSRFSGSGSGTQYSLKINSLQPEDFGSYYCQYFWSTYTFGGGTKLEIKR
12 | 0.559 nM | Mutation 1-55 (antibody, mouse IgG2b, kappa, V domains shown) VH: QVQLQQPGAELVRPGASVKLSCKASGYSFTNYWMNWVKQRPGQGLEWIGMIHPSDSETRLNQKFKDKATLTVDKSSSTAYMQLSSLTAEDSAVYYCARSGDFYTTYFDYWGQGTTLTVSS VL: DIQLTQSPASLSASVGETVTITCRGSGNIHNYLAWYQQKQGKSPQLLVYNAKTIADGVPSRFSGSGSGTQYSLKINSLQPEDFGSYYCQYFWSTYTFGGGTKLEIKR
13 | 0.336 nM | Mutation 1-48 (antibody, mouse IgG2b, kappa, V domains shown) VH: QVQLQQPGAELVRPGASVKLSCKASGYSFTNYWMNWVKQRPGQGLEWIGMIHPSDSETRINQKFKDKATLTVDKSSSTAYMQLSSLTAEDSAVYYCAKSGDFYTYYFDYWGQGTTLTVSS VL: DIQLTQSPASLSASVGETVTITCRGSGNLHNYLAWYQQKQGKSPQLLVYNAKTLADGVPSRFSGSGSGTQYSLKINSLQPEDFGSYYCQYFWSTYTFGGGTKLEIKR
14 | 0.545 nM | Mutation 1-42 (antibody, mouse IgG2b, kappa, V domains shown) VH: QVQLQQPGAELVRPGASVKLSCKASGYSFTNYWMNWVKQRPGQGLEWIGMIHPSDSETRINQKFKDKATLTVDKSSSTAYMQLSSLTAEDSAVYYCARSGDFYTSYFDYWGQGTTLTVSS VL: DIQLTQSPASLSASVGETVTITCRGTGNIHNYLAWYQQKQGKSPQLLVYNAKTIADGVPSRFSGSGSGTQYSLKINSLQPEDFGSYYCQTFWSTYTFGGGTKLEIKR
15 | 0.342 nM | Mutation 1-49 (antibody, mouse IgG2b, kappa, V domains shown) VH: QVQLQQPGAELVRPGASVKLSCKASGSSFTNYWMNWVKQRPGQGLEWIGMIHPSDSETRLNQKFKDKATLTVDKSSSTAYMQLSSLTAEDSAVYYCAKSGDFYTTYFDYWGQGTTLTVSS VL: DIQLTQSPASLSASVGETVTITCRGTGNLHNYLAWYQQKQGKSPQLLVYNAKTVADGVPSRFSGSGSGTQYSLKINSLQPEDFGSYYCQTFWSTYTFGGGTKLEIKR
16 | 0.332 nM | Mutation 1-46 (antibody, mouse IgG2b, kappa, V domains shown) VH: QVQLQQPGAELVRPGASVKLSCKASGTSFTNYWMNWVKQRPGQGLEWIGMIHPSESETRLNQKFKDKATLTVDKSSSTAYMQLSSLTAEDSAVYYCARSGEFYTTYFDYWGQGTTLTVSS VL: DIQLTQSPASLSASVGETVTITCRGTGNLHNYLAWYQQKQGKSPQLLVYNARTVADGVPSRFSGSGSGTQYSLKINSLQPEDFGSYYCQYFWSTYTFGGGTKLEIKR
